Experiments:
[1] = target: T1, HCoV-NL63 spike antigens (bead panel) (HCoV-NL63, UniProt Q6Q1S2 19-1296); assay: multiplex bead assay
T1 sequence: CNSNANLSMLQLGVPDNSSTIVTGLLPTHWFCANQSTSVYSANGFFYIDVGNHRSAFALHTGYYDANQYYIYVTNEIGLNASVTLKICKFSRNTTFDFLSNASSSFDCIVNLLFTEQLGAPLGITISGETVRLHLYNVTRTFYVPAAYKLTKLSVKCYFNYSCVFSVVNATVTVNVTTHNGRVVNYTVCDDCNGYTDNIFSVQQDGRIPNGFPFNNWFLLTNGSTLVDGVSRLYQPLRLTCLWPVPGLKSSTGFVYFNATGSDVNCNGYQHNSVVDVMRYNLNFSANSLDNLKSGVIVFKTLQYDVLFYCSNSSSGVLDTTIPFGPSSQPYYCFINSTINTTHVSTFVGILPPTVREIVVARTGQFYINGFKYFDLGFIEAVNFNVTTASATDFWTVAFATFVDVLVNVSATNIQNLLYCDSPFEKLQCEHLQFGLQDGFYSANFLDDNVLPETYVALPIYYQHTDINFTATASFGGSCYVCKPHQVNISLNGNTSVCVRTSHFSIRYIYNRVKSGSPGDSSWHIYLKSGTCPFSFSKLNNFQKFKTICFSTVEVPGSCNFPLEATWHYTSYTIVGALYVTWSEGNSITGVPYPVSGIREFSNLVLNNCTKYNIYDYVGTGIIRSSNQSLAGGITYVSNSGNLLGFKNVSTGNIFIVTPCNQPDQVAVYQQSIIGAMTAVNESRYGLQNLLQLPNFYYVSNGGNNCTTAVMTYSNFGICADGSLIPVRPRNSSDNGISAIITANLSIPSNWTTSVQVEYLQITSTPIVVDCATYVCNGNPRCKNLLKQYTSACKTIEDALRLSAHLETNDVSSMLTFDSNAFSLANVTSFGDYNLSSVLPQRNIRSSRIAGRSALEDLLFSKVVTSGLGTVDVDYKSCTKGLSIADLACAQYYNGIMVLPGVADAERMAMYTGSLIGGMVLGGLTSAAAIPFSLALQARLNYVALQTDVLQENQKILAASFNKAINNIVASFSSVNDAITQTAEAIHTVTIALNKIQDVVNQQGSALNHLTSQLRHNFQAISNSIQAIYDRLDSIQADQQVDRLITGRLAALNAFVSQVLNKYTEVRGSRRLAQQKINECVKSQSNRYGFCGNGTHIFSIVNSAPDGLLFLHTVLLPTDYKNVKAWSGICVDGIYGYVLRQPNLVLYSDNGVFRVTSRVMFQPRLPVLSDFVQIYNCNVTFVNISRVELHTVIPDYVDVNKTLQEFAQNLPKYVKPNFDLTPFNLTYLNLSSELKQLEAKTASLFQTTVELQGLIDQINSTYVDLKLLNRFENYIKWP

[2] = target: T2, HCoV-OC43 spike antigens (bead panel) (HCoV-OC43, UniProt P36334 14-1297); assay: multiplex bead assay
T2 sequence: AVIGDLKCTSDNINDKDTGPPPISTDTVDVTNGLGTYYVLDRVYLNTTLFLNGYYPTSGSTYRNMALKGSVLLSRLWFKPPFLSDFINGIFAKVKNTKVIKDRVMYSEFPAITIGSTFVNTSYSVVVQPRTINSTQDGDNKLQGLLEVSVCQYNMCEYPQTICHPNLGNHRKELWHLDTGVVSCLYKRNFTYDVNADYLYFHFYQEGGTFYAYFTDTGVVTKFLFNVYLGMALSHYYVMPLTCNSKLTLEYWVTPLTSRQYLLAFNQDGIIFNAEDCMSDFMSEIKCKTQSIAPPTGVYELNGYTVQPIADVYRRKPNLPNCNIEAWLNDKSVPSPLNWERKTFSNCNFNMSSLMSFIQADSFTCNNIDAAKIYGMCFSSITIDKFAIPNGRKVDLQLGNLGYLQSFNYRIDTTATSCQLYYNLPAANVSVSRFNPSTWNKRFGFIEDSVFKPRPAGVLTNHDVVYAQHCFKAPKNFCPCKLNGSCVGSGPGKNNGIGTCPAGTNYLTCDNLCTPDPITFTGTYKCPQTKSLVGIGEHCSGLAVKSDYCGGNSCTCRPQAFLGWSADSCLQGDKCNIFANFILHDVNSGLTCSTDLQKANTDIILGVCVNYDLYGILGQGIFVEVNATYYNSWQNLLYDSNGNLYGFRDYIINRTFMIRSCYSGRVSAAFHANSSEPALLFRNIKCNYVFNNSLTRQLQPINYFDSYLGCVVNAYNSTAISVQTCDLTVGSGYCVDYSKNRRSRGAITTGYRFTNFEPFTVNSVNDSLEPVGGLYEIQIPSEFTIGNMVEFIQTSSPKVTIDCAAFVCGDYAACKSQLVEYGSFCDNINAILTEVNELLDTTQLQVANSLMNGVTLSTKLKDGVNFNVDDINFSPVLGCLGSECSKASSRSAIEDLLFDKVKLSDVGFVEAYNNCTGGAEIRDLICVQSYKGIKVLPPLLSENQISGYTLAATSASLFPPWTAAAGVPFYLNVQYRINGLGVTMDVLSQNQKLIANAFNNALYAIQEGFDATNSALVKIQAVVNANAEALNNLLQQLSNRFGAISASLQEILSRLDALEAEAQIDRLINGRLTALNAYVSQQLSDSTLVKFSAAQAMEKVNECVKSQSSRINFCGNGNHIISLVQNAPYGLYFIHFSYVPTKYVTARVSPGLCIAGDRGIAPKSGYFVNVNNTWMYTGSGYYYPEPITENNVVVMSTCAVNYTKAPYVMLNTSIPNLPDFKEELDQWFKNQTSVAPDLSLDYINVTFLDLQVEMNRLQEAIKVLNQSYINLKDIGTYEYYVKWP

B1: COV_2054 (antibody, V domains shown)
VH: EVQLVESGGGVLQPGRSLRLSCAASGFTFNNYALHWVRQAPGKGLEWVAVISYDGSSKYYADSVRGRLTISRDNSRNTLYLQMNSLRPEDTAIYYCARDGDGLWLGESFYFDDWGQGTLVTVSS
VL: DIQMTQSPSTLSASVGDRVIITCRASQSISSWLAWYQQKPGKAPKLLIYEASTLQSGVPSRFSGSGSGTEFTLTISSLQPDDSATYYCQQYNSYPVHFSQGTKLEIK
notes: human IgG1
[1]
  binding result: no binding
[2]
  binding result: no binding

B2: COV_2174 (antibody, V domains shown)
VH: EVQLAESGGGLVKPGGSLRLSCAASGFTFSDYYMSWIRQAPGKGLEWVSYISSSGSTIYYADSVKGRFTISRDNAKNSLYLQMNSLRAEDTAVYYCARDWSVVVVPAAPAVDVWGQGTTVTVSS
VL: DIQMTQSPSSLSASVGDRVTITCRASQGISNYLAWFQQKPGKAPKSLIYAASSLQSGVPSKFSGSGSGTDFTLTISSLQPEDFATYYCQQYNSYPLTFGGGTKVEIKR
notes: human IgG1
[1]
  binding result: no binding
[2]
  binding result: no binding

B3: COV_2143 (antibody, V domains shown)
VH: EVQLVESGGGVVQPGRSLRLSCAASGFTFNSFAMLWVRQAPGKGLEWVALFSYDGSNKYYADSVKGRFTISRDNSKNTLYLQMNNLRAVDTAVYYCARASPYDINGYYLHRIAFDIWGQGTMVTVSS
VL: QSVLMQPPSVSGAPGQRVTISCTGSSSNIGAGYDVHWYQQLPGTAPKLLMYGNSNRPSGVPDRFSGSKSGTSASLAITGLQAEDEADYYCQSYDSGLSGWVFGGGTKLTVLG
notes: human IgG1
[1]
  binding result: no binding
[2]
  binding result: no binding

B4: COV_2172 (SEQ ID NO:872/877) (antibody, V domains shown)
VH: EVQLVESGGGVVQPGRSLRLSCAPSGFTFSTYAMHWVRQAPGKGLEWVAVISYDGSIKYYADSVKGRFTISRDNTMNTVFLQMNSLRAEDTAVYFCAKGGERWELFTSFDYWGQGTQVTVSS
VL: QSALTQPRSVSGSPGQSVTISCTGTSSDVGGYNYVSWYQQHPGKAPKLMIYDVSKRPSGVPDRFSGSKSGNTASLTISGLQAEDEADYYCCSYAGSYTFVFGGGTKLTVLG
[1]
  binding result: no binding
[2]
  binding result: no binding

B5: COV_2027 (antibody, V domains shown)
VH: EVQLVESGGGLIQPGGSLRLSCAASGFSVSTNYMSWVRQAPGKGLEWVSIIYSGGGTYYADSVKGRFTISRDTSENTLYLQMNSLRAEDTAVYYCASFLVGATGQPWYWGQGTLVTVSS
VL: not shown
notes: human IgG1
[1]
  binding result: no binding
[2]
  binding result: no binding

B6: COV_2014 (antibody, V domains shown)
VH: QVQLVQSGAEVKKPGASVKVSCKVSGYTLTELSMHWVRQAPGKGLEWMGGFDPEDGETIYAQKFQGRVTMTEDTSTDTAYMELSSLRSEDTAVYYCATGKINYYDSSGYYGTFDYWGQGTLVTVSS
VL: AIQLTQSPSSLSASVGDRVTITCRASQGISSYLAWYQQKPGKAPKLLIYAASTLQSGVPSRFSGSGSGTDFTLTISSLQPEDFATYYCQQLNSYHLTFGQGTRLEIK
notes: human IgG1
[1]
  binding result: no binding
[2]
  binding result: no binding

B7: COV_2025 (antibody, V domains shown)
VH: QVHLVQSGAEVKKPGASVKVSCKVSGYTLVELSVHWVRQAPAKGLEWIGGFDPEDGETIYAQKFQGRVTMTEDTSTDTAYMELTNLRSEDTAVYYCVTSQPFVSPNWFDPWGQGTLVTVSS
VL: QSALTQPASVSGSPGQSITISCTGTSRDVGAYNYVSWYQQHPGKAPKLMIYEVTTRPSGVSNRFSGSKSGNTASLTISGLQAEDEADYYCSSYTGSRTLVFGTGTKVTVL
notes: human IgG1
[1]
  binding result: no binding
[2]
  binding result: no binding

B8: COV_2039 (antibody, V domains shown)
VH: QVQLVQSGAEVKKPGASVKVSCKVSGYMLIELSMHWVRQAPGKGLEWMGGFDPEDAETIYAQEFQGRVTMTEDTSTDTAYMELSSLRSEDTAVYYCTTGPAVTNRPADYWGPGTLVTVSS
VL: QSVLTQPPSVSGAPGQRVTISCTGSSSNIGASYDVHWYQQLPGTAPKLLIYANSNRPSGVPDRFSGSKSGTSASLAITGLQAEDEADYYCQSYDSSLSYSVVFGGGTKLTVL
notes: human IgG1
[1]
  binding result: no binding
[2]
  binding result: no binding

B9: COV_2123 (antibody, V domains shown)
VH: EVQLVESGGGVVQPGRSLRLSCAASGFTFSSYAMHWVRQAPGKGLEWVAVLSYDGSNKYNADSVKGRFTISRDNSKNTLYLQMNSLRVEDTAMYYCARDGVSVTMVRGVIGPLCDYWGQGTLVTVSS
VL: not shown
notes: human IgG1
[1]
  binding result: no binding
[2]
  binding result: no binding

B10: COV_2028 (antibody, V domains shown)
VH: QVQLQESGPGLVKPSGTLSLTCVVSGGSISSSNWWSWVRQPPGKGLEWIGEIYHSGSTNYNPSLKSRVTISVDKSKNQFSLRLTSVTAADTAVYYCARGWNYDYWGQGTLVTVSS
VL: QSALTQPASVSGSPGQSITIACTGTSSDVGSYNLVSWYQQHPGKAPKLMIYEVSKRPSGLSNRFSGSKSGNTASLTISGLQAEDEADYYCYSYAGSSTWVFGGGTKLTVL
notes: human IgG1
[1]
  binding result: no binding
[2]
  binding result: no binding

B11: COV_3077 (antibody, V domains shown)
VH: QVQLQESGPGLVKPSETLSLTCAVSGYSISSGYYWGWIRQPPGKGLEWIGSIYHSGSTYYNPSLKSRVTISVDTSKNQFSLKLSSVTAADTAVYYCARALYDAFDIWGQGTMVTVSS
VL: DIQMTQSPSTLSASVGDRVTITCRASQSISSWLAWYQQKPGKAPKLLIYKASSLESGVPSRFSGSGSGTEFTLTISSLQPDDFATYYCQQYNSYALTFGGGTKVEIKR
notes: human IgG1
[1]
  binding result: no binding
[2]
  binding result: no binding

B12: COV_2035 (antibody, V domains shown)
VH: QVQLVQSGAEVKKPGASVKVSCKVSGYTLPELSIHWVRQAPGKGLEWLGGFDPEDGKIIYAQKFQGRVTMTEDTSTDTAYMELSSLRSEDTAVYYCATSPAVVERGWFDPWGQGTLVTVSS
VL: QSALTQPPSASGSPGQSVTISCTGTSSDVGGYNYVSWYQQHPGKAPKLMIYEVSKRPSGVPDRFSGSKSGNMASLTVSGLQAEDEANYYCSSYAGSKRVFGGGTKLTVL
notes: human IgG1
[1]
  binding result: no binding
[2]
  binding result: no binding

B13: COV_2037 (antibody, V domains shown)
VH: QVQLVQSGAEVKKPGASVKVSCKVSGYTLTELSMHWVRQAPGKGLEWMGGFDPEDAETIYAQKFQGRVTMTEDTSTDTAYMELSSLRSEDTAVYYCATAGAITGTPTNYSYYYGMDFWGQGTTVTVSS
VL: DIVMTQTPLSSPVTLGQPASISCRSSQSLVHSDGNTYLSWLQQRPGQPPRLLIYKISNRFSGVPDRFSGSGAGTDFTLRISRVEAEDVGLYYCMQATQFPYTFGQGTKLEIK
notes: human IgG1
[1]
  binding result: no binding
[2]
  binding result: no binding

From patent US20240101645A1 (HENRY M JACKSON FOUNDATION FOR THE ADVANCEMENT OF MILITARY …, published 2024)
